# Assay results taken from the Human Domainome abundance scans (Beltran et al. 2025).
# ± gives the uncertainty stated by the source.
# B1: RNA-binding E3 ubiquitin-protein ligase MEX3C, residues 325 to 391; numbered along this chain, Q5U5Q3 (parent)
# chain: GQTTVQVRVPYRVVGLVVGPKGATIKRIQQQTHTYIVTPSRDKEPVFEVTGMPENVDRAREEIEMHI
# B2: Integrator complex subunit 12, residues 155 to 213; numbered along this chain, Q96CB8 (parent)
# chain: AMEMGLACVVCRQMMVASGNQLVECQECHNLYHRDCHKPQVTDKEANDPRLVWYCARCT
# Variants of: B1
# Test: abundance fitness (aPCA) (normalised: wild type 0, dead -1); higher = more abundant; growth selection in yeast, the domain comes from the species named
# Settings: Homo sapiens
row,Variant,abundance fitness
1,GQTTVQVRVPYRVVGLVVGPKGATIKRIQQQTHTYIVTPSRDKEPVFEVTGMPENVDRAREEIEMGI [H66G],-0.465 ± 0.1
2,GQTTVQVRVPYRVVGLVVGPKGATIKRIQQQTHTYIVTPSRDKEPVFEVTGMPENVDRAREEIEMII [H66I],0.404 ± 0.23
3,GQTTVQVRVPYRVVGLVVGPKGATIKRIQQQTHTYIVTPSRDKEPVFEVTGMPENVDRAREEIEMKI [H66K],-0.039 ± 0.12
4,GQTTVQVRVPYRVVGLVVGPKGATIKRIQQQTHTYIVTPSRDKEPVFEVTGMPENVDRAREEIEMLI [H66L],0.282 ± 0.073
5,GQTTVQVRVPYRVVGLVVGPKGATIKRIQQQTHTYIVTPSRDKEPVFEVTGMPENVDRAREEIEMPI [H66P],-0.88 ± 0.21
6,GQTTVQVRVPYRVVGLVVGPKGATIKRIQQQTHTYIVTPSRDKEPVFEVTGMPENVDRAREEIEMQI [H66Q],0.166 ± 0.12
7,GQTTVQVRVPYRVVGLVVGPKGATIKRIQQQTHTYIVTPSRDKEPVFEVTGMPENVDRAREEIEMRI [H66R],0.178 ± 0.06
8,GQTTVQVRVPYRVVGLVVGPKGATIKRIQQQTHTYIVTPSRDKEPVFEVTGMPENVDRAREEIEMSI [H66S],-0.336 ± 0.092
9,GQTTVQVRVPYRVVGLVVGPKGATIKRIQQQTHTYIVTPSRDKEPVFEVTGMPENVDRAREEIEMTI [H66T],0.198 ± 0.1
10,GQTTVQVRVPYRVVGLVVGPKGATIKRIQQQTHTYIVTPSRDKEPVFEVTGMPENVDRAREEIEMVI [H66V],0.286 ± 0.093
11,GQTTVQVRVPYRVVGLVVGPKGATIKRIQQQTHTYIVTPSRDKEPVFEVTGMPENVDRAREEIEMWI [H66W],-0.079 ± 0.09
12,GQTTVQVRVPYRVVGLVVGPKGATIKRIQQQTHTYIVTPSRDKEPVFEVTGMPENVDRAREEIEMYI [H66Y],0.11 ± 0.095
13,GQTTVQVRVPYRVVGLVVGPKGATIKRIQQQTHTYIVTPSRDKEPVFEVTGMPENVDRAREEIEMHA [I67A],0.163 ± 0.11
14,GQTTVQVRVPYRVVGLVVGPKGATIKRIQQQTHTYIVTPSRDKEPVFEVTGMPENVDRAREEIEMHC [I67C],-0.104 ± 0.24
15,GQTTVQVRVPYRVVGLVVGPKGATIKRIQQQTHTYIVTPSRDKEPVFEVTGMPENVDRAREEIEMHE [I67E],-0.235 ± 0.22
16,GQTTVQVRVPYRVVGLVVGPKGATIKRIQQQTHTYIVTPSRDKEPVFEVTGMPENVDRAREEIEMHF [I67F],-0.437 ± 0.38
17,GQTTVQVRVPYRVVGLVVGPKGATIKRIQQQTHTYIVTPSRDKEPVFEVTGMPENVDRAREEIEMHG [I67G],0.026 ± 0.18
18,GQTTVQVRVPYRVVGLVVGPKGATIKRIQQQTHTYIVTPSRDKEPVFEVTGMPENVDRAREEIEMHK [I67K],-0.778 ± 0.36
19,GQTTVQVRVPYRVVGLVVGPKGATIKRIQQQTHTYIVTPSRDKEPVFEVTGMPENVDRAREEIEMHM [I67M],-0.635 ± 0.4
20,GQTTVQVRVPYRVVGLVVGPKGATIKRIQQQTHTYIVTPSRDKEPVFEVTGMPENVDRAREEIEMHP [I67P],-0.773 ± 0.28
21,GQTTVQVRVPYRVVGLVVGPKGATIKRIQQQTHTYIVTPSRDKEPVFEVTGMPENVDRAREEIEMHR [I67R],-0.515 ± 0.16
22,GQTTVQVRVPYRVVGLVVGPKGATIKRIQQQTHTYIVTPSRDKEPVFEVTGMPENVDRAREEIEMHS [I67S],-0.027 ± 0.1
23,GQTTVQVRVPYRVVGLVVGPKGATIKRIQQQTHTYIVTPSRDKEPVFEVTGMPENVDRAREEIEMHT [I67T],-0.023 ± 0.1
24,GQTTVQVRVPYRVVGLVVGPKGATIKRIQQQTHTYIVTPSRDKEPVFEVTGMPENVDRAREEIEMHV [I67V],0.119 ± 0.094
25,GQTTVQVRVPYRVVGLVVGPKGATIKRIQQQTHTYIVTPSRDKEPVFEVTGMPENVDRAREEIEMHW [I67W],0.289 ± 0.19
26,GQTTVQVRVPYRVVGLVVGPKGATIKRIQQQTHTYIVTPSRDKEPVFEVTGMPENVDRAREEIEMHY [I67Y],0.476 ± 0.41

# Variants of: B2
# Test: as above
# Settings: Homo sapiens
row,Variant,abundance fitness
1,AMEMGLACVVCRQMMVASGNELVECQECHNLYHRDCHKPQVTDKEANDPRLVWYCARCT [Q21E],-0.067 ± 0.062
2,AMEMGLACVVCRQMMYASGNQLVECQECHNLYHRDCHKPQVTDKEANDPRLVWYCARCT [V16Y],-0.144 ± 0.035
3,AMEMGLACNVCRQMMVASGNQLVECQECHNLYHRDCHKPQVTDKEANDPRLVWYCARCT [V9N],-0.223 ± 0.038
4,AMEMGLACVVCRQMMVASGNQLVECQECHNLYHRDCHKPQVTDKEANDPRLVMYCARCT [W53M],-0.252 ± 0.077
5,AMEMGLACVPCRQMMVASGNQLVECQECHNLYHRDCHKPQVTDKEANDPRLVWYCARCT [V10P],-0.627 ± 0.048
6,AMEMGLACVVCRQMMVASGNQLVECQECHNLYQRDCHKPQVTDKEANDPRLVWYCARCT [H33Q],-0.769 ± 0.084
7,AMEMGLACVVCRQMMVASGNQLVECQECHNLYHRDCHKPQVTDKEANDPRLVWYCARET [C58E],-0.906 ± 0.099
8,AMEMGLACVVCRQMMVASGNQLVECQECHNLYHRDCAKPQVTDKEANDPRLVWYCARCT [H37A],-0.048 ± 0.035
9,AMEMGLACVVCRQMMIASGNQLVECQECHNLYHRDCHKPQVTDKEANDPRLVWYCARCT [V16I],-0.089 ± 0.035
10,AMEMGLACVVCRQMMVASGNQLVECQEAHNLYHRDCHKPQVTDKEANDPRLVWYCARCT [C28A],-0.616 ± 0.049
11,AMEMGLACVVCRQMMVASNNQLVECQECHNLYHRDCHKPQVTDKEANDPRLVWYCARCT [G19N],-0.014 ± 0.05
12,AMEMGLACVVCRQMMVASGNQLVECQECHNLYHRDCHKPQVTDKEANDGRLVWYCARCT [P49G],0.062 ± 0.044
13,AMEMGLACVVCRQMMVASGNQLVECQECHNLYHRDCHKPQVTDKEANDPRLVWYNARCT [C55N],-0.615 ± 0.21
14,AMEMGLACVVERQMMVASGNQLVECQECHNLYHRDCHKPQVTDKEANDPRLVWYCARCT [C11E],-0.782 ± 0.13
15,AMEMGLACVVCRQMMVASGNQLVECQECHNLYHRDCHKPQVTDKEANNPRLVWYCARCT [D48N],-0.128 ± 0.069
16,AMEMGLACVVCRQMMVASGNQLKECQECHNLYHRDCHKPQVTDKEANDPRLVWYCARCT [V23K],-0.164 ± 0.055
